This is an account of results in publication PMC2699511.

This data set deals with GST-Vif wild type (HIV-1, UniProt P69723 1-192). Nature of the data set: EMSA.
GST-Vif wild type, sequence (P69723 whole entry): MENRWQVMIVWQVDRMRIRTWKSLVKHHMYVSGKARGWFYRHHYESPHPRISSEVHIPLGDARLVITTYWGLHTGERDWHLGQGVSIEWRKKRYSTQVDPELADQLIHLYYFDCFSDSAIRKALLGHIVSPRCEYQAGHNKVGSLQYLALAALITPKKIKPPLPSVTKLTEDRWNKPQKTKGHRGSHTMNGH

For AAAAAAAAAAAAAAAAAAAAAAAAAAAAAAAAAAAAAAAA (ssRNA) [poly(rA40)], the binding result is “binds”.
